These results are taken from PMC7008241, “Radiolabeled Cationic Peptides for Targeted Imaging of Infection” (Contrast Media & Molecular Imaging, 2019).

Where “and” joins values, the source holds several entries; their conditions need not be identical. Identical values can stand only once. Where a SMILES comes first, the peptide text is derived from it. [ ]: non-standard residue; d: D form. The star is where a group is joined. DOTA = O=C(O)CN1CCN(CC(=O)O)CCN(CC(=O)*)CCN(CC(=O)O)CC1; X1 = CC(=O)c1ccc(OCCC*)cc1B(O)O

Data set [1] relates to Staphylococcus aureus (SA), ATCC 6538. The data set is described as follows: Bacterial cell uptake of 64Cu-labeled peptides in Staphylococcus aureus. Type of data set: cell-based. Particulars: SA 0.9–1.3 × 10^7 CFU/mL in PBS pH 7.4, 37°C, 24 h, 0.925–0.999 MBq, gamma counter, triplicates, mean ± SD. The source says: (§1) All solvents and reagents were obtained from Sigma-Aldrich Company unless otherwise specified. […] Diethylenetriaminepentaacetic acid (DTPA) was purchased from Sigma (St. Louis, MO). 1,4,7,10-Tetraazacyclododecane-1,4,7,10-tetraacetic acid mono-N-hydroxysuccinimide ester (DOTA-NHS-ester) was purchased from Macrocyclics (Dallas, Texas). C18 SepPak cartridges were obtained from Waters Corporation (Milford. MA). Radiometric instant thin-layer chromatography measurements were accomplished using a TLC scanner (Bioscan AR-2000 Scanner). Reverse-phase chromatography analysis was performed on a C18 column (PA) with an infinity diode-array UV detector (Agilent, Lake Forest, CA) and a PMT/NaI remote radioactive detector (LabLogic Systems Ltd, Brandon, FL). Laura radiochromatography software (LabLogic Systems Ltd, Brandon, FL) was used to quantify chromatograms by integration. Radioactive samples were counted using a 2480 Wizard II automatic gamma counter (PerkinElmer, Downers Grove, IL). Imaging studies were done by using […] (Sofie BioSciences) [CT-80 Kvp, 5 min (approximately 100 μm), PET-Resolution ≤1 mm]. Acquired PET/CT images were analyzed with InveonTM Research Workplace (IRW) (Siemens). […] At each time point, the mixture was spun down, washed twice with PBS, and the final bacterial pellets were measured using a gamma counter to determine the percent of associated radiolabeled peptide. […]

The nature of data set [2]: in vivo. More on the design: species or system mice. Particulars: mouse, iv, total radioactivity. As to the method:
(§2) All animal experiments were performed according to animal use protocols approved by the University of Alabama at Birmingham Institutional Animal Care and Use Committee (IACUC). Animals were housed under controlled conditions with a natural light-dark cycle. They were allowed to adapt to the housing environment for at least 48 h prior to study. Biodistribution and PET imaging studies with ^64Cu-HLys-DOTA and ^64Cu-AB1-HLys-DOTA were conducted in mice intramuscularly (IM) infected in the thigh muscle with SA and PBS as a control. Thirty-six male mice (25–30 g, 4–5 weeks old) infected with SA were used for animal studies. For each peptide, 4 mice were used for small animal PET imaging at 1, 4, and 24 h, and then sacrificed at 24 h for a post-PET biodistribution. Another set of 4 mice each was used for biodistribution studies at 1 and 4 h. A similar set of mice was used for blocking studies with ^64Cu-AB1-HLys-DOTA peptide. In order to check the specificity of ^64Cu-AB1-HLys-DOTA for Gram-positive bacteria, imaging and post-PET biodistribution studies were conducted in another set of mice (four) intramuscularly (IM) infected in the thigh muscle with PA and PBS.
(§3) Mice for infection studies were anesthetized prior to the intramuscular infection of SA or PA. Animals were immobilized with isoflurane. Bacteria cells concentrated in sterile PBS were injected into the thigh muscle and the site of injection pinched to minimize bleeding. SA or PA suspension (50 μL, 2.6–2.8 × 10^7 CFU per mouse) was intramuscularly injected into the right thigh muscle, and sterile PBS (50 μL) was injected into the left thigh muscle as control. Mice were placed back into the cages and allowed to recover with frequent monitoring to identify any sign of extreme distress. The infection was allowed to develop for 3–5 days before intravenous injection of the radiolabeled probe. The muscles on the left and right thighs were harvested, homogenized, and plated on mannitol agar plates or cultured in LB broth to verify the presence of infection. In addition, [^18F]FDG imaging was also performed in infected animal models as described in the PET imaging section below to further confirm the existence of infection in the right thigh and the absence thereof in the left thigh.
(§4) Small animal PET/CT imaging studies were conducted in SA-infected and PA-infected animal models. Each radiolabeled peptide, 3.3–3.7 MBq (90–100 μCi), was administrated via tail vein injection of prewarmed mice under anesthesia. The inflammatory response caused by the infection was confirmed by intravenous injection of [^18F]FDG, 3.7 MBq (100 μCi), into mice infected on the right thigh muscle with SA or PA and on the left with PBS as control. For this small animal PET imaging, 1 and 4 h post-injection static scans were collected. Following imaging studies, the mice were sacrificed for biodistribution. Mice were allowed to recover from anesthesia until the time of imaging. Mice were anesthetized with 2‐3% isoflurane/oxygen and imaged on the small animal PET/CT scanner. Static images were collected at 1, 4, and 24 h for 15, 20, and 30 min, respectively. PET images were coregistered with CT image for anatomical colocalization. Regions of interest (ROI) were manually drawn over organs of interest with CT anatomical guidelines, and the associated radioactivity was measured using Inveon Research Workstation software. Standard uptake values (SUV) were calculated as nCi/cc × animal weight/injected dose, and comparisons in pharmacokinetics of radiolabeled peptides were assessed.

A short description of data set [3]: in vivo. The settings on record: mouse, iv, total radioactivity. Also on record: species or system mice. How it is done: as §2, §3
For biodistribution studies, 3.3–3.7 MBq (90–100 μCi) of ^64Cu-HLys-DOTA or ^64Cu-AB1-HLys-DOTA was injected into prewarmed tail vein of the animals under anesthesia. Animals were euthanized at 1 and 4 h after radiotracer administration (n = 4 for each tracer at each time point). At 24 h after small animal PET imaging, the mice were also euthanized for a post-PET biodistribution. In a similar set of experiment, excess of the unlabeled peptide, 150 nmol, was coinjected with the radiolabeled peptides per mouse. The organs of interest were collected, weighed, and measured for radioactivity content using a gamma counter. The data were background-corrected and decay-corrected. The biodistribution data were expressed as percentage of injected radioactive dose per gram of tissue (%ID/g) for selected organs as the mean value of four mice.
This is another data set of the same source.

Data set [4] has as its system Pseudomonas aeruginosa (PA), ATCC 47085. The data set is described as follows: Bacterial cell uptake of 64Cu-labeled peptides in Pseudomonas aeruginosa. Type of data set: cell-based. Particulars: PA in PBS pH 7.4, 37°C, gamma counter, triplicates, mean ± SD.
Excerpt: as §1

Data set [5] concerns Staphylococcus aureus (SA) infected thigh muscle. The data set can be described thus: in vivo. More on the design: species or system mice. Particulars: mouse. How it is done:
as §2, §3, §4

Setting [6] is: male, mean SUV in the infected muscle.
Where [7] appears, read: male, mean SUV of the heart (blood retention).
Setting [8] is: male, mean SUV of the heart (dose retention).
[9] abbreviates: male, uptake in the control muscle.

On to `CC(C)[C@@H](NC(=O)[C@@H](Cc1c[nH]c2ccccc12)NC(=O)[C@@H](Cc1ccc(O)cc1)NC(=O)[C@@H](CCCNC(=N)N)NC(=O)CN1CCN(CC(=O)O)CCN(CC(=O)O)CCN(CC(=O)O)CC1)C(=O)N[C@H](C)C(=O)N[C@H](Cc1c[nH]c2ccccc12)C(=O)N[C@H](CCCNC(=N)N)C(=O)N[C@H](CC(N)=O)C(=O)N[C@H](CCCNC(=N)N)C(=O)NCC(N)=O` [^64Cu-HLys-DOTA, metal not drawn] ({DOTA}-[dR][dY][dW][dV][dA][dW][dR][dN][dR]G-NH2; N-terminus and C-terminus assumed), for which, in data set [1], the “bacteria cell uptake (percent of associated radiolabeled peptide)” value is 39.12 ± 3.27% and 39.1 ± 3.3%. Moreover, in “in vivo [2]” (setting [6]), the SUV at 1 h was 0.17 ± 0.06 SUV, the SUV at 4 h was determined as 0.16 ± 0.02 SUV and the SUV at 24 h turned out to be 0.13 ± 0.01 SUV. Also, in the data set “in vivo [2]” (setting [7]), the SUV at 1 h turned out to be 0.25 ± 0.05 SUV. Also, the SUV at 24 h in the data set “in vivo [2]” (setting [8]) was 0.21 ± 0.04 SUV. In “in vivo [3]” (setting [9]), the tissue uptake (in general, the share of the injected amount in each gram of the tissue) at 1 h was found to be 0.6 ± 0.1 %ID/g and the tissue uptake at 4 h is 0.4 ± 0.1 %ID/g. The “binding to PA (cell uptake)” value in data set [4] (5 min after incubation) is 1.9 ± 0.4%. For the same molecule, the “binding to PA (cell uptake)” value in data set [4] (24 h after incubation) is given as 5.2 ± 0.3%.
As for `CC(=O)c1ccc(OCCCSC[C@H](NC(=O)CNC(=O)[C@@H](CCCNC(=N)N)NC(=O)[C@@H](CC(N)=O)NC(=O)[C@@H](CCCNC(=N)N)NC(=O)[C@@H](Cc2c[nH]c3ccccc23)NC(=O)[C@@H](C)NC(=O)[C@H](NC(=O)[C@@H](Cc2c[nH]c3ccccc23)NC(=O)[C@@H](Cc2ccc(O)cc2)NC(=O)[C@@H](CCCNC(=N)N)NC(=O)CN2CCN(CC(=O)O)CCN(CC(=O)O)CCN(CC(=O)O)CC2)C(C)C)C(N)=O)cc1B(O)O` [^64Cu-AB1-HLys-DOTA, metal not drawn] ({DOTA}-[dR][dY][dW][dV][dA][dW][dR][dN][dR]GC(X1)-NH2), the SUV at 1 h in the data set “in vivo [2]” (setting [6]) was found to be 0.7 ± 0.08 SUV; in the data set “in vivo [2]” (setting [7]) it was 0.65 ± 0.08 SUV; in the data set “in vivo [2]”, 0.28 ± 0.1 SUV. Further, the SUV at 4 h was 0.49 ± 0.04 SUV in “in vivo [2]” (setting [6]) and 0.19 ± 0.1 SUV in “in vivo [2]”. The SUV at 24 h in “in vivo [2]” (setting [6]) amounted to 0.31 ± 0.01 SUV; in the data set “in vivo [2]” (setting [8]), 0.26 ± 0.04 SUV. Also, in data set [5], the “fold increase in accumulation (SUV) vs. ^64Cu-HLys-DOTA at the infection” value is 2.4-4 fold. Also, the tissue uptake at 1 h in “in vivo [3]” (setting [9]) came to 2.5 ± 0.5 %ID/g. For the same molecule, in the data set “in vivo [3]” (setting [9]), the tissue uptake at 4 h is 1.1 ± 0.4 %ID/g. Besides, the tissue uptake at 24 h was determined as 0.8 ± 0.1 %ID/g in the data set “in vivo [3]” (setting [9]) and 0.49 ± 0.11 %ID/g in “in vivo [3]”.
